From patent publication US11339381B2, “Nucleotide sequence encoding 9-lipoxygenase and recombinant constructs comprising the same” (Council of Scientific & Industrial Research, priority 2016, dated 2022) come the findings set out here.

In data set [1] the test system is recombinant 9-lipoxygenase (Mi9LOX). Description: Recombinant Mi9LOX enzyme kinetics with LA and ALA as substrates (conjugated diene formation at 234 nm). The class given is biochemical, Mangifera indica. The settings on record: substrate of Mi9LOX. As to the method: The recombinant 9-lipoxygenase (Mi9LOX) activity assays was initially carried out in 250 μl final volume of 100 mM phosphate citrate buffer pH 7.0 at 30° C. containing 200 μM substrate (LA/ALA) and 0.005% Tween20. The activity was measured by formation of the conjugated diene at absorbance of 234 nm, applying an extinction coefficient 25000 M^-1 cm^-1 for both the substrates. […] at 0th min for each reaction is considered as blank and subtracted from […] for given time (t). Similar activity assays were also performed with protein expressed from empty vector for the confirmation of Mi9LOX activity. Optimum pH was determined by calculating activity at varied range of pH in phosphate citrate buffer at 30° C., whereas temperature optima was determined by calculating recombinant 9-lipoxygenase activity in phosphate citrate buffer pH 7 at various temperatures. The purified recombinant 9-lipoxygenase having amino acid sequence as set forth in SEQ ID NO: 2 used linoleic acid (LA) and alpha linolenic acid (ALA) as substrates. Activity of the recombinant 9-lipoxygenase protein was measured spectrophotometrically at 234 nm by the formation of conjugated dienes. For unit calculations, molar extinction coefficient for hydroperoxy linoleate and linolenate was considered 25000 cm^-1M^-1. […]

The test system of data set [2] is ethylene treated mango fruits. The data set can be described thus: In vivo transient over expression of 9-lipoxygenase by Agrobacterium mediated infiltration. More on the design: species or system Alphonso mango (Mangifera indica). The settings on record: for δ-decalactone content compared to control tissue / δ-valerolactone content compared to control tissue: transient over expression, 2 days post infiltration, GC-FID. As to the method:
The full length polynucleotide sequence (SEQ ID NO: 1) encoding 9-lipoxygenase (SEQ ID NO: 2) was cloned into the pBI121 plant expression vector between CaMV 35S promoter and GusA gene. Terminal primers were designed (SEQ ID NO: 10 and SEQ ID NO: 11) to clone genes at BamHI restriction site. The resulted correct oriented construct pBI121+Mi9LOX and pBI121 empty vector were transformed in the Agrobacterium GV3101 strain for transient expression studies. Separate Agrobacterium cultures (5 mL) were initiated from individual colonies in YEB medium having appropriate antibiotics and incubated overnight at 28° C. This culture was transferred to 50 mL induction medium (0.5% beef extract, 0.1% yeast extract, 0.5% peptone, 0.5% sucrose, 2 mM MgSO4, […], 10 mM MES, pH 5.6) having appropriate antibiotics, and again grown overnight. On the succeeding day, cultures were recovered by centrifugation, resuspended in infiltration medium (10 mM MgCl2, 10 mM MES, […], pH 5.6) till optical density reaches 1.0. This suspension was again incubated at 28° C. with gentle agitation for 2 hrs. Over expression studies for 9LOX was carried out by Agrobacterium mediated infiltration in ethylene treated mango fruits at 3DAH stage by using hypodermic syringe (FIG. 4a). Equal volumes of pBI121+Mi9LOX and pBI121 construct containing cultures were used for infiltration in two different halves of same mango fruit separated by fruit stone. Set of five distinct mango fruits were used for the overexpression study as data set. Infiltrated fruits were kept at 25° C. for 2 days in 12 hr dark and 12 hr light conditions, after 2 days; part from each fruit halves was checked by the Gus staining (Kapila et al. 1997; Spolaore et al. 2001) to confirm expression of Mi9LOX under 35S promoter along with GusA, remaining part of fruit pulp stored in −80° C. until used for the lactone analysis by gas chromatography.
Thus, ethylene treated mangoes were ideal for Agrobacterium infiltration studies as Agrobacterium infiltrated fruits cannot be incubated for more than 2 days due to the risk of bacterial and fungal infection owing to fruit injury during infiltration. Two days post infiltration, a part of fruit was checked by Gus staining (FIG. 4b) to confirm expression of GusA along with the Mi9LOX gene. The remaining tissue was used for the lactone content analysis. The lactones were analysed from control and test region of fruits from Mi9LOX sets. Total 8 lactones viz. γ-butyrolactone, δ-valerolactone, γ-hexalactone, δ-hexalactone, γ-octalactone, δ-octalactone, γ-decalactone and δ-decalactone were detected from all the tissues in GC-MS analysis.

Data set [3] has as its system recombinant 9-lipoxygenase (Mi9LOX). The data set can be described thus: pH and temperature activity profile of recombinant Mi9LOX. The class given is biochemical, Mangifera indica. Conditions: for Optimum temperature: phosphate citrate buffer pH 7. As to the method:
The recombinant 9-lipoxygenase (Mi9LOX) activity assays was initially carried out in 250 μl final volume of 100 mM phosphate citrate buffer pH 7.0 at 30° C. containing 200 μM substrate (LA/ALA) and 0.005% Tween20. The activity was measured by formation of the conjugated diene at absorbance of 234 nm, applying an extinction coefficient 25000 M^-1 cm^-1 for both the substrates. […] at 0th min for each reaction is considered as blank and subtracted from […] for given time (t). Similar activity assays were also performed with protein expressed from empty vector for the confirmation of Mi9LOX activity. Optimum pH was determined by calculating activity at varied range of pH in phosphate citrate buffer at 30° C., whereas temperature optima was determined by calculating recombinant 9-lipoxygenase activity in phosphate citrate buffer pH 7 at various temperatures. The purified recombinant 9-lipoxygenase having amino acid sequence as set forth in SEQ ID NO: 2 used linoleic acid (LA) and alpha linolenic acid (ALA) as substrates. Activity of the recombinant 9-lipoxygenase protein was measured spectrophotometrically at 234 nm by the formation of conjugated dienes. For unit calculations, molar extinction coefficient for hydroperoxy linoleate and linolenate was considered 25000 cm^-1M^-1. 9HpODE and 9HpOTrE products formed by the activity of Mi9LOX on LA and ALA respectively were confirmed by UPLC-HRMS. […] (FIG. 10(a)).

The mark [4] stands for this setting: HRMS intermediate metabolite analysis.

With `CCCCC/C=C\C/C=C\CCCCCCCC(=O)O` [LA, linoleic acid], in data set [1], the Km is 354 µM and the Vmax result is “LA- 611.11 ± 55.55 μM min^−1mg^−1”.
As for “SEQ ID NO: 1: 2526 bp cDNA polynucleotide encoding 9-lipoxygenase, cloned in pBI121 and agroinfiltrated for transient over expression”, in data set [2], the “δ-decalactone content compared to control tissue” value was 1.48 fold and the “δ-valerolactone content compared to control tissue” value is given as 1.08 fold.

B1: Mi9LOX: Recombinant Mangifera indica 9-lipoxygenase from Alphonso mango, 841 aa, SEQ ID NO: 2 (protein)
chain: MGTVVLMKKNFLDFNDLSASVIDRVDELVGKRVSLQLVSAFNSDPTASNGLQGKVGEPAHLEEWITTITPLVAEESTFKVTFDWDEQIGVPGAFIIKNNHHSGFYLKSLTLEDVPNQGRIHFVCNSWVYPAKRYKKDRVFFTNKTYLPGEMPAPLQYYREQELLNLRGDGTGELQEWDRVYDYAYYNDLGDPDNGKPRPVLGGSTEYPYPRRGRTGRPPAKTDPETESRLPLLTSLNIYVPRDERFGHIKMSDFLGYALKSISQFIEPALESVFDSTPNEFDNFAQIYKLYDEGIQLPNDHFLDDIRNNIPLELLKEIFPTNEDNLFEFPTPQVIQGDRSAWRTDEEFAREMLAGPNPVIIRRVEEFPPRSKLDPELYGDQDSKITKQHIESYLDGLTVEQAIEKNELFILDHHDSLMTYLRRINTTSTKTYASRTILFLKEDGTLKPLAIELSRPHPDGDQYGAISNVYTPSEDEVEGSIWQLAKAYVAVNDSGVHQLISHWLKTHAAIEPFVIATNRQLSVLHPIYKLLQPHFRDTMNINAFARQIVINAGGILETTVFPAKYAMEMSSAIYKDWTFPDQALPEDLKNRGMAVEDPNSPHGLRLLIADYPYAVDGLEIWFAIKNWVKDYCYFYYKSDEMMQKDSGLQSWWKELREEGHGDKKDEPWWPKMQNREELIEACTIIIWIASALHAAVNFGQYPYAGFLPNRPTMSRRFMPEKGTPDYDELESNFDKVFLKTITAQRQTLLGIALIETLSRHSSDEMYLGQRDTPEWTSDKIPLQAFEDFGKKLGDIEVRIITRNHDNMLKNRVGPVNMPYTLLYPTSEGGLTGKGIPNSVSI
modifications: Protein sequence of 7- Dehydrocholestrol reductase (7-DHCR)
For B1, in data set [2] (setting [4]), the “9HpODE in control and test tissues” value is given as “not detected”; the “increase in 9HpOTrE upon Mi9LOX over expression” value worked out at 1.9 folds. In addition, in data set [2], the “δ-decalactone content compared to control tissue” value stood at 1.48 fold and the “δ-valerolactone content compared to control tissue” value came out at 1.08 fold. The “increase of Mi9LOX transcripts in test tissues as compared to the control tissues” value in data set [2] (upon Agrobacterium infiltration) came out at 1.73. For the same molecule, the “reduction in the activity” value in data set [3] (at 35° C.) came out at 75%. Moreover, the reduced activity in data set [3] (at 50° C.) came out at 69%. Besides, the “reduction in the activity” value in data set [3] (at pH 5 and 9) is recorded as 40%. The “Optimum pH” value in data set [3] (phosphate citrate buffer at 30° C.) stood at 6.5. Moreover, in data set [3], the Optimum temperature came to 37 °C. Also, in data set [3] (listed as recombinant 9-lipoxygenase), the Optimum temperature was 35 °C.

What is called Km is the substrate concentration at which the rate is half of its maximum.
